Measured values: patent publication US20040214763A1 (AVENTIS PHARMA S A, published 2004)
Ends that are not written are not given here.

Tests used:
[1] = biological target: p38 protein fused with an N-terminal myc epitope, expressed from pcDNA3-myc-P38 (human) (UniProt Q13155); test: cell-based or functional assay
[2] = biological target: T1, p38 protein (product of the human gene JTV1) fused to the transactivating domain of GAL4, from library … (yeast; human, UniProt Q13155 1-320, limits assumed); test: yeast two-hybrid, b-Gal activity assay in strain L40
T1 construct: also called plasmid isolated during the screening of the two-hybrid library; fragment corresponding to the p38 protein
T1 sequence: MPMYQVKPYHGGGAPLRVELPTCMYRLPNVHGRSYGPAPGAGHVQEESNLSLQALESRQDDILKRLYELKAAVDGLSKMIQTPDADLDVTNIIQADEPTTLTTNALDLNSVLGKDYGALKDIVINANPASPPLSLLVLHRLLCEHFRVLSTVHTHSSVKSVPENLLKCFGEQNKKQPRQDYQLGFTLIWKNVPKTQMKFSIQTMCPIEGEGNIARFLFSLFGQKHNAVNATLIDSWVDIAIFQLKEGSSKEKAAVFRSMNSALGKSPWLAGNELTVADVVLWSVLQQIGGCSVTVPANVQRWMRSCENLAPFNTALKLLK
Description: A sheet of nitrocellulose is pre-placed on the Petri dish containing the separated yeast clones. This sheet is then immersed in liquid nitrogen for 30 seconds in order to rupture the yeasts and thus to release the b-galactosidase activity. After thawing, the sheet of nitrocellulose is placed, colonies facing upwards, in another Petri dish containing a Whatman paper presoaked in 1.5 ml of PBS solution (60 mM Na2HPO4, 40 mM NaH2PO4, 10 mM KCl, 1 mM MgSO4, pH 7) containing 15 μl of X-Gal (5-bromo-4-chloro-3-indolyl-b-D-galactoside) containing 40 mg/ml of N,N-dimethylformamide. The dish is then placed in an incubator at 37° C. The assay is deemed positive when the colonies on the membrane turn blue after 12 hours.
In order to determine the specificity of interaction between the fragment corresponding to the p38 protein and the central region of parkin, we carried out a two-hybrid test for specific interaction with other, non-relevant proteins. To carry out this test, we transformed the L40 strain with the control plasmids plex9-cAPP or pLex9-HaRasVal12 in place of the plasmid pLex9-Parkin (135-290), encoding, respectively, the cytoplasmic domain of APP or the HaRasVal12 protein, which are fused to the DNA-binding domain of LexA and with the plasmid isolated during the screening of the two-hybrid library. […]

## human parkin stably overexpressed in the SH-SY5Y-VI clone (from UniProt O60260 1-465) (enzyme)
[1]
  proportion of transfected cells exhibiting p38 aggregates: 8%

B1: cytoplasmic domain of the APP protein fused to LexA, expressed from pLex9-cAPP (other, UniProt P05067 723-770, looked up)
chain: LKKKQYTSIHHGVVEVDAAVTPEERHLSKMQQNGYENPTYKFFEQMQN
modifications: also: fused to LexA
notes: domain: cytoplasmic domain; Control bait in the two-hybrid specificity test; also called pLex-cAPP; not shown: bacterial repressor LexA as encoded by vector pLex9 (pBTM116)
[2]
  binding result: no binding
